Measured values: US20240352438A1, “MEANS AND METHODS FOR DETOXIFYING OCHRATOXIN A” (DSM Austria GmbH, priority 2021, published 2024)

Assays:
[1] = Pelleting trial: degradation of spiked OTA to OTalpha in mash feed and resuspended pellets; conditions: for OTalpha %: formed OTalpha; for OTA %: remaining OTA
Description: To verify the suitability of the enzymes referred to herein as additives e.g. for feed or food, pelleting trials were conducted. As an example, 1.15 U or 0.06 U of either of the enzymes having either the amino acid sequence of SEQ ID NO: 1 or 2 was homogeneously mixed with one kg of mash feed and subjected to standard feed pelleting process where the temperature of the conditioner was set to either 75, 80, 85, 90 or 95° C. in five separate batches of feed pelleting. The effect of pelleting process on the stability of enzyme was estimated by calculation of percentage degradation of spiked OTA to OTalpha in resuspended pellets. Untreated mash was analyzed applying the following protocol: 50 μL of 10 ppm OTA were spiked to g of dry sample, directly before starting the assay by adding 4.95 mL RO-water (37° C.). The suspension was incubated in 50 mL tubes in an overhead shaker at 37° C. for 60 min. The reaction was stopped by adding 1 mL 6 M phosphoric acid followed by another incubation in a rotary shaker at room temperature for 10 min. Subsequently 30 μL of ^13C-labeled OTA/^13C-labeled OTalpha (each 1 ppm) internal standard were added to each sample and mixed. 30 mL ethyl acetate were added followed by shaking for 60 min at 80 rpm on an overhead shaker. After centrifugation (10 min, 3214 rcf), 8 mL of the organic upper phase were transferred to a new 50 mL tube. 4 mL of 0.1 M NaHCO3 (pH 8.2) were added. After shaking for 1 min at 80 rpm on an overhead shaker, sample was centrifuged again (10 min, 3214 rcf) and 3 mL of the aqueous lower phase transferred to a new 15 mL tube. 70 μL 85% phosphoric acid and 1.5 mL ethyl acetate were added and shaken for 1 min at 80 rpm at an overhead shaker. After centrifugation (10 min, 3214 rcf) 50 μL organic upper phase were added to 50 μL acetonitrile in a silanized HPLC vial and thoroughly mixed. OTA and OTalpha content was determined by HPLC MS/MS method as described by Dellafiora et al. (2020, Toxins 12, 258) to determine the percentage of OTA degradation to form OTalpha.

[2] = Feeding trial in pigs: OTA concentration in plasma and urine; type: in vivo; conditions: for % OTA reduction, plasma samples / % OTA reduction, urine samples: day 14
Description: To further study an application of the enzymes referred to herein as additives e.g. for feed or food, feeding trials were conducted in pigs. Exemplarily, either of the enzymes having either the amino acid sequence of SEQ ID NO: 1 or 2 were produced by cultivation of E. coli transformants in bioreactors by applying methods known to a person having skill in the art. The cell broth was homogenized and centrifuged. The supernatant was concentrated, dried by lyophilization and formulated as a powder by grinding. The enzymatic activity of the thus obtained lyophilized powder was determined, and the powder was mixed with feed for the feeding trial as described in the following.
Thirteen piglet groups were studied based on the following experimental diet setups: 1) Base feed; 2) base feed+50 ppb OTA; 3) base feed+50 ppb OTA+2.62 U of the enzyme of SEQ ID NO: 1 per kg of feed; 4) base feed+50 ppb OTA+0.29 U of the enzyme of SEQ ID NO: 2 per kg of feed; 5) base feed+500 ppb OTA; 6) base feed+500 ppb OTA+2.62 U of the enzyme of SEQ ID NO: 1 per kg of feed; 7) 500 ppb OTA+0.29 U of the enzyme of SEQ ID NO: 2 per kg of feed.
Each trial group consisted of four piglets weighing approximately 7-8 kg, who were coming out from weaning and adapted to solid diet before being fed the experimental diet as described above. The duration of the feeding trial (i.e. actual days of feeding the experimental diet) was fourteen days. Collectively each trial group consumed around 15 kg of feed. No piglets fell sick to any unexpected disease throughout the feeding trial. Urine and blood samples were collected on day 0, just before starting the experimental diet, and on day 14.
Extraction of OTA was performed from plasma and urine samples for subsequent analysis by HPLC-MS. 200 μL of sample was thoroughly mixed with 800 μL of extraction solution (containing 99% of ethyl acetate and 1% of phosphoric acid, 85%) followed by centrifugation at 19000×g for 5 min for phase separation. 50 μL of upper phase was diluted with 50 μL of acetonitrile, followed by HPLC-MS analysis. The HPLC-MS method as described by Dellafiora et al. (2020, Toxins 12, 258) was used to determine the changes in OTA concentration in the samples taken during the trial upon consumption of the experimental diets. The results are shown in Table 18 using the diet setup numbering as indicated above.

[3] = mash before pelleting, 1.15 U or 0.06 U enzyme per kg mash feed, 37° C., 60 min
[4] = 500 ppb OTA+enzyme (2.62 U SEQ ID NO: 1 or 0.29 U SEQ ID NO: 2 per kg of feed)
[5] = base feed+50 ppb OTA+enzyme (2.62 U SEQ ID NO: 1 or 0.29 U SEQ ID NO: 2 per kg of feed)

B1: SEQ ID NO: 1: mature species of exemplary OTA-hydrolyzing polypeptide 1, amidohydrolase family; lacks N-terminal amino acids 1-24 of SEQ ID NO: 318 (protein)
chain: APAAPHTVVLRAARMFDGASGKLVDHPQLTIVGNKIVRIAQGDKAEVPAGAEVVDLGDATLLPGFIDAHVHLSGQSSDNWYGDFFDNMMRFPAEQALYGAYYARITLEAGFTSVRDVGSTDWVALGLRNAIDAGKVPGPRMLVSNYAVGSTGGHADQDPIPPHKLPLAGPLQGVCNGPEECRAAVRYQIKYGANVIKFMPSGGVLSLSDPVDAPELSQDEMNAVIGESHAWGRKVAAHAHGDKAAKMAVAAGVDSIEHGSFIEDDTLRAMKAKNVYLVPTISAIAHVEEKIGTFPPVIAEKGRAAAAHLRQTFRHAVQIGVPIALGTDAGVGAHGSNAREFRYMVENGLTPAQALLAGTANAARLLGTFDRVGTLEAGKLADVVAVPGNPIADITVTERPLFVMKDGVVVRRDAVR
modifications: polypeptide 1
[1]; after pelleting at 75° C.
  OTalpha %: 99%
  OTA %: 1%
[1]; after pelleting at 80° C.
  OTalpha %: 99%
  OTA %: 1%
[1]; after pelleting at 85° C.
  OTalpha %: 99%
  OTA %: 1%
[1]; after pelleting at 90° C.
  OTalpha %: 99%
  OTA %: 1%
[1]; after pelleting at 95° C.
  OTalpha %: 99%
  OTA %: 1%
[1]; [3]
  OTalpha %: 99%
  OTA %: 1%
[2]; [4]
  OTA concentration in plasma samples, Day 14: 168 ± 41 ppb
  OTA concentration in urine samples, Day 14: 7 ± 1 ppb
  % OTA reduction, plasma samples: 59%
  % OTA reduction, urine samples: 65%
[2]; [5]
  OTA concentration in plasma samples, Day 14: 19 ± 2 ppb
  OTA concentration in urine samples, Day 14: 0 ppb
  % OTA reduction, plasma samples: 54%
  % OTA reduction, urine samples: 100%
